Columns and labels:
c-Abl (mouse) = assay: phosphorylation enrichment, bacterial display (enrichment ratio); higher = better substrate or ligand; peptides without Tyr show the background
FGFR1 = FGFR1 (UniProt P11362); assay: as above
Fes = Fes (UniProt P07332); assay: as above
EPHB2 = EPHB2 (UniProt P29323); assay: as above
EPHB1 = EPHB1 (UniProt P54762); assay: as above
Jak2 = Jak2 (UniProt O60674); assay: as above
MERTK = MERTK (UniProt Q12866); assay: as above
Fer (mouse) = assay: as above
c-Src = assay: as above
Hck = Hck (UniProt P08631); assay: as above
Chain of Hck (P08631 whole entry, looked up): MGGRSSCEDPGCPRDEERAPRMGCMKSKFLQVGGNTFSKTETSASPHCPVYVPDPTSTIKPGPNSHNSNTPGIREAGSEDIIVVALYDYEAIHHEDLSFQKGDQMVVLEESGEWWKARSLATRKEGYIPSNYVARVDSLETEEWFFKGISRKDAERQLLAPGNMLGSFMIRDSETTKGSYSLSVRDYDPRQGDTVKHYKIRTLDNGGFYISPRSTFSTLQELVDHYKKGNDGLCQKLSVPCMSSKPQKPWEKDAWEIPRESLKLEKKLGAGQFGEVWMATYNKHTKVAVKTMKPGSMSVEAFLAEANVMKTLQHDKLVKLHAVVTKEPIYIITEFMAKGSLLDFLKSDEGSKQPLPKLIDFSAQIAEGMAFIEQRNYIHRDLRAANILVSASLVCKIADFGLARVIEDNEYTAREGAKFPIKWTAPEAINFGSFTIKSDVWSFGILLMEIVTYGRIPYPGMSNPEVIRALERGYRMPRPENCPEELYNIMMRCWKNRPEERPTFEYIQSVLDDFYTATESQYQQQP

AncSZ = assay: as above
Fyn = Fyn (UniProt P06241); assay: as above
Chain of Fyn (P06241 whole entry, looked up): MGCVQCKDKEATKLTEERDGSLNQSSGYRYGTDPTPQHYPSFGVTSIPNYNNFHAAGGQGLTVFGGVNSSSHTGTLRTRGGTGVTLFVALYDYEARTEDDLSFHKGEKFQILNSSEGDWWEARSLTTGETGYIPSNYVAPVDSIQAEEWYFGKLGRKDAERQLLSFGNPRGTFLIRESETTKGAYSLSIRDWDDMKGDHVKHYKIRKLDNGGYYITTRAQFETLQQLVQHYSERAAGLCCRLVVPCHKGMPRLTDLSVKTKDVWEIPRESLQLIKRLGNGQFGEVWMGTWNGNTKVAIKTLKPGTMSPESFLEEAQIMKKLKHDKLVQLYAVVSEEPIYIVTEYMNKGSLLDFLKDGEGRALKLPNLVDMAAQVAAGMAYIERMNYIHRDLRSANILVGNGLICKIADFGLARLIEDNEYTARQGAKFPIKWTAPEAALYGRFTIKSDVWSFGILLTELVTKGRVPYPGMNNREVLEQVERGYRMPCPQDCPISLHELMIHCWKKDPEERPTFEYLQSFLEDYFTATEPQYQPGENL

FGFR3 = FGFR3 (UniProt P22607); assay: as above
Chain of FGFR3 (P22607 whole entry, looked up): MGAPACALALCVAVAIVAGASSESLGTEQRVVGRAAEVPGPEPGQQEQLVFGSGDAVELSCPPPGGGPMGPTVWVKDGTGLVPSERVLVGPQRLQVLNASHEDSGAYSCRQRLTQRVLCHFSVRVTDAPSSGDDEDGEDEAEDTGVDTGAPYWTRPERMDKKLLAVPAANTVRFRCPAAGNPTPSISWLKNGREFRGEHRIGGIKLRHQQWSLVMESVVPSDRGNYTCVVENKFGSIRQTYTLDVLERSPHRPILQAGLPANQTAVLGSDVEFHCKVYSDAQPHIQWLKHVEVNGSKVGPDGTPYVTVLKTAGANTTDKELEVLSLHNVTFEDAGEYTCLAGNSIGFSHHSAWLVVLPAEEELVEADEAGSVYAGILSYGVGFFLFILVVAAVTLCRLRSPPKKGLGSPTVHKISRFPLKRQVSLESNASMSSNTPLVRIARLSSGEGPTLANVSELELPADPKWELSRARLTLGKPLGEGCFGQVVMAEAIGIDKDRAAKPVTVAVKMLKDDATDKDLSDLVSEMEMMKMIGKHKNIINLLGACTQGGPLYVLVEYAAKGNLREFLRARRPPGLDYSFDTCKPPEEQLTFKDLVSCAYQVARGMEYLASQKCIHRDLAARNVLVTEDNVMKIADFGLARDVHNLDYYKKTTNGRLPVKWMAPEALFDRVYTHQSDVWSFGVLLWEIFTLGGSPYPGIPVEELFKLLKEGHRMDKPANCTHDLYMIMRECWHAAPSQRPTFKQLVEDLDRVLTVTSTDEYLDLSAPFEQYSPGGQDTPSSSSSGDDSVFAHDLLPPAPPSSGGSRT

c-Src SH2 = assay: SH2 binding enrichment of the phosphorylated peptide, bacterial display (enrichment ratio); higher = better substrate or ligand; peptides without Tyr show the background
SHP2-C SH2 = assay: as above
Grb2 SH2 = Grb2 SH2 (UniProt P62993); assay: as above
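Wherever SH2 binding enrichment of the phosphorylated peptide, bacterial display is given: peptide library displayed on the E. coli surface as eCPX fusions, selected cells deep-sequenced, score is each peptide's frequency after selection divided by its frequency in the input.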
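Wherever phosphorylation enrichment, bacterial display is given: 11-residue human phosphosite peptides and single-mutation variants displayed on the E. coli surface, counted by deep sequencing, each peptide's frequency after selection divided by its frequency in the unselected input library; frequency after pTyr selection over input frequency; kinase dosed for 20-30% of maximal phosphorylation in three min.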

Chain of Jak2 (O60674 whole entry, looked up): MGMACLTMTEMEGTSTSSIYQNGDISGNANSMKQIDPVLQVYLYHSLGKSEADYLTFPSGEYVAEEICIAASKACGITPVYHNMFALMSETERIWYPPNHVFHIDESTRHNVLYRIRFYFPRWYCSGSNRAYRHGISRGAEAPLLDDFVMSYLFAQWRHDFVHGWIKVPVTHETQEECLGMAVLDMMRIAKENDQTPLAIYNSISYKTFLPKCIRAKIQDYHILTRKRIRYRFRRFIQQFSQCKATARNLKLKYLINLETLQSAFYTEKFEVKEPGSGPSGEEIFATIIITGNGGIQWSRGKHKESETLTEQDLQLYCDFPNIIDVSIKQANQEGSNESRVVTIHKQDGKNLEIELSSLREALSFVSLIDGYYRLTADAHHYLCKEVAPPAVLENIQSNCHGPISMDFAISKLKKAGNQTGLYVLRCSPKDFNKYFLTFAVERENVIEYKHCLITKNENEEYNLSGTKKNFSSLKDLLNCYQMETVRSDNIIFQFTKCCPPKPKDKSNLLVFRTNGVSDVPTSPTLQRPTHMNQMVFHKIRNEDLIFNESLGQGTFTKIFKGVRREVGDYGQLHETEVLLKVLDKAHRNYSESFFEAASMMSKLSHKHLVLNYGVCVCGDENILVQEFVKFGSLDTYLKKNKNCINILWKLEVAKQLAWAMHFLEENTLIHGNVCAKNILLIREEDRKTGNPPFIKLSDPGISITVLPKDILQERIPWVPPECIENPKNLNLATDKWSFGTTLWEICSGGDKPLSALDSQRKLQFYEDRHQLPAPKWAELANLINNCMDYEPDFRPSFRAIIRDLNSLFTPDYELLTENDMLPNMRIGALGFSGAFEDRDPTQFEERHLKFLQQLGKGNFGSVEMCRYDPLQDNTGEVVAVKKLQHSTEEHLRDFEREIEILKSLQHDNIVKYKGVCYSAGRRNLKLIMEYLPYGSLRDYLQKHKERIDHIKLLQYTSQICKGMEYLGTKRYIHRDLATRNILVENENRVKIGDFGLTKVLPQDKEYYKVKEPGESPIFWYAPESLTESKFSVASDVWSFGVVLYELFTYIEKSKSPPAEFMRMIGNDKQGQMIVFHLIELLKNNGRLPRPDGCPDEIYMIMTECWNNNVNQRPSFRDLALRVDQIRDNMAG
Chain of EPHB1 (P54762 whole entry, looked up): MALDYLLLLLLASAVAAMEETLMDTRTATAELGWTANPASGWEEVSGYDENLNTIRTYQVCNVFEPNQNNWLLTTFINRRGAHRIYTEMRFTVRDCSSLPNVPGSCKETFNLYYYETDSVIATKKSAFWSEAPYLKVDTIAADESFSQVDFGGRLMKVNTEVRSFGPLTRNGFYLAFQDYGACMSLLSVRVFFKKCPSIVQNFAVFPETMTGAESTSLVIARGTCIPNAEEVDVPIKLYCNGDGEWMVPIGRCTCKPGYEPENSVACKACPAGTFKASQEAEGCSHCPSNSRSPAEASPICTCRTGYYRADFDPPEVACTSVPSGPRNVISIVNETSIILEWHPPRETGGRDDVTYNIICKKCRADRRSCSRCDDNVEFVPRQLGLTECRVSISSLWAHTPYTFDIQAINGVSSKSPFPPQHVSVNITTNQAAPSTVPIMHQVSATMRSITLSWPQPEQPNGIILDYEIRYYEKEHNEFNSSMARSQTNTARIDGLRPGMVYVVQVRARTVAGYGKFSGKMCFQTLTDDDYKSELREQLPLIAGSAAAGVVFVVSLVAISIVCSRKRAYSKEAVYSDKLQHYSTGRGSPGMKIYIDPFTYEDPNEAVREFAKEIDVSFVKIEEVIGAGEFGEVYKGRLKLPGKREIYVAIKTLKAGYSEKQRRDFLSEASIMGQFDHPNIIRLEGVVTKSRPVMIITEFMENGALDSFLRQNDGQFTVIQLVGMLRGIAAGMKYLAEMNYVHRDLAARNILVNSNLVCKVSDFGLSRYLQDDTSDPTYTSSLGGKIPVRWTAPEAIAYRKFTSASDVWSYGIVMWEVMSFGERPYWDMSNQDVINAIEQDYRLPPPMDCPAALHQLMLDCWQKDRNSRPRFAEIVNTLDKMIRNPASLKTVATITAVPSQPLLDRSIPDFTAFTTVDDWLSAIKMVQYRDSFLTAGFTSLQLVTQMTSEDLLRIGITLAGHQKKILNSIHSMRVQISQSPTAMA
Chain of FGFR1 (P11362 whole entry, looked up): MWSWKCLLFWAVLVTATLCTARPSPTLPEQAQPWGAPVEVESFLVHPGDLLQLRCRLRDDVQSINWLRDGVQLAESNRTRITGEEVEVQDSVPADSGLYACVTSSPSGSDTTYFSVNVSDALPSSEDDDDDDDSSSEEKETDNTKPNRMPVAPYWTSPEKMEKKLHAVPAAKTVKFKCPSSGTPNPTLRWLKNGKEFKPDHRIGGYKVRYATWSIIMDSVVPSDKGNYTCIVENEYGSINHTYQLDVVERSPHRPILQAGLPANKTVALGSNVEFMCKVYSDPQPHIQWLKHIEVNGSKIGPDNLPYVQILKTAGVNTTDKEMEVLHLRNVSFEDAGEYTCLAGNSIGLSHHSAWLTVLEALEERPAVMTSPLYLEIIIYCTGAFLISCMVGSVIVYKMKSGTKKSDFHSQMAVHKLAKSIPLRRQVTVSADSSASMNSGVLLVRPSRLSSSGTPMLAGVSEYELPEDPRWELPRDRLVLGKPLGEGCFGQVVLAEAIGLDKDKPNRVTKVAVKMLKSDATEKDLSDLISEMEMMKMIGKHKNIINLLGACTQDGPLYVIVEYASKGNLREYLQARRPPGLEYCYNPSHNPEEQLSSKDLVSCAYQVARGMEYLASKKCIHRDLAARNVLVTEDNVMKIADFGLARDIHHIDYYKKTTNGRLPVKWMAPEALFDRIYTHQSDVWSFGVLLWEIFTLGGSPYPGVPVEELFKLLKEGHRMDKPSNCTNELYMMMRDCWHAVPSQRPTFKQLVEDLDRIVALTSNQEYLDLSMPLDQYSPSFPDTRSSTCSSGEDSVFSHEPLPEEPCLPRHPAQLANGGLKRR

Sequence | SH2 binding enrichment (c-Src SH2) | SH2 binding enrichment (SHP2-C SH2) | SH2 binding enrichment (Grb2 SH2) | phosphorylation enrichment (c-Abl (mouse)) | phosphorylation enrichment (FGFR1) | phosphorylation enrichment (Fes) | phosphorylation enrichment (EPHB2) | phosphorylation enrichment (EPHB1) | phosphorylation enrichment (Jak2) | phosphorylation enrichment (MERTK) | phosphorylation enrichment (Fer (mouse)) | phosphorylation enrichment (c-Src) | phosphorylation enrichment (Hck) | phosphorylation enrichment (AncSZ) | phosphorylation enrichment (Fyn) | phosphorylation enrichment (FGFR3)
NFRTTYINANE [KCNH2_Y475_V476I] | 0.745 | 1.34 | 5.07 | 0.711 | 0.528 | 0.819 | 0.435 | 0.566 | 0.843 | 0.476 | 0.383 | 0.584 | 0.462 | 0.733 | 0.412 | 0.506
NHYKIYNLCAE [PTEN_Y68] | 1.2 | 0.826 | 0.941 | 0.547 | 0.409 | 0.784 | 0.442 | 0.432 | 0.493 | 0.407 | 0.439 | 2.05 | 0.85 | 0.579 | 1.61 | 0.77
NIQKKYYRAIL [CHD7_Y1217] | 0.898 | 1.09 | 1.09 | 0.563 | 0.472 | 0.543 | 0.375 | 0.346 | 0.494 | 0.345 | 0.533 | 0.371 | 0.355 | 0.502 | 0.443 | 0.595
NLSVHYDSSLK [ABCC8_Y1353_R1352H] | 0.509 | 0.547 | 0.793 | 0.548 | 0.522 | 0.922 | 0.82 | 0.579 | 0.612 | 0.339 | 0.437 | 0.342 | 0.453 | 0.952 | 0.424 | 0.603
NNRVFYDNSDR [RS1_Y177_G178D] | 0.675 | 0.744 | 0.883 | 0.453 | 0.435 | 0.628 | 0.442 | 0.412 | 0.499 | 0.42 | 0.471 | 0.409 | 0.4 | 0.603 | 0.45 | 0.471
NNVEQYQAMVT [TPR_Y965_S960N] | 0.754 | 0.765 | 0.67 | 0.683 | 0.581 | 1.14 | 0.634 | 0.599 | 0.779 | 0.523 | 0.528 | 0.485 | 0.551 | 1.08 | 0.542 | 0.721
NPQKSYFIHLF [WAS_Y83_R86H_YF] | 0.604 | 1.08 | 1.19 | 0.77 | 0.475 | 1.32 | 0.512 | 0.644 | 1.29 | 0.384 | 0.449 | 0.399 | 0.431 | 0.93 | 0.396 | 0.73
NVKGIYAVADV [GSR_Y371_G374A] | 1.44 | 0.599 | 0.826 | 16.5 | 0.506 | 0.82 | 3.77 | 2.06 | 0.678 | 6.08 | 2.06 | 3.12 | 3.79 | 0.977 | 3.67 | 0.687
PADRAYSWYQH [NDST1_Y711] | 0.753 | 0.47 | 0.747 | 1.58 | 1.33 | 1.61 | 0.817 | 1.19 | 1.68 | 2.86 | 15.8 | 1.77 | 0.888 | 0.98 | 0.617 | 1.16
PESIMYPKFTT [NTRK3_Y744_R745P] | 0.596 | 0.594 | 0.748 | 0.595 | 0.656 | 1.09 | 0.586 | 0.513 | 0.717 | 0.579 | 0.549 | 0.397 | 0.739 | 0.66 | 0.707 | 0.794
PFTRNYYVRAV [CYBA_Y87] | 0.615 | 1.21 | 0.799 | 0.747 | 0.704 | 1.29 | 1.41 | 0.753 | 0.85 | 0.608 | 0.422 | 0.558 | 0.666 | 1.16 | 0.614 | 0.792
PGVNFYFRVSA | 0.424 | 0.701 | 0.759 | 1.37 | 1.14 | 2.13 | 0.759 | 0.914 | 1.53 | 0.743 | 0.708 | 0.599 | 0.817 | 1.73 | 0.653 | 1.88
PIMSFYAALID [RYR1_Y2426_A2421P] | 0.571 | 0.585 | 0.969 | 0.905 | 0.706 | 1.46 | 1.24 | 1.45 | 1.54 | 0.732 | 0.734 | 0.487 | 0.647 | 1.58 | 0.49 | 1.33
PIQLFYTRKNT [GHR_Y86_R89K] | 0.605 | 0.756 | 0.767 | 0.916 | 0.718 | 1.62 | 0.835 | 0.65 | 1.86 | 0.846 | 1.27 | 1.39 | 1.18 | 4.3 | 1.04 | 0.967
PLEGKYEWQEV [CDKN1B_Y74] | 3.88 | 0.516 | 0.675 | 0.816 | 0.619 | 1.49 | 0.572 | 0.57 | 1.11 | 0.452 | 0.613 | 0.465 | 0.483 | 1.29 | 0.379 | 0.743

The next lines start with results.

SH2 binding enrichment (c-Src SH2) | SH2 binding enrichment (SHP2-C SH2) | SH2 binding enrichment (Grb2 SH2) | Sequence | phosphorylation enrichment (c-Abl (mouse)) | phosphorylation enrichment (FGFR1) | phosphorylation enrichment (Fes) | phosphorylation enrichment (EPHB2) | phosphorylation enrichment (EPHB1) | phosphorylation enrichment (Jak2) | phosphorylation enrichment (MERTK) | phosphorylation enrichment (Fer (mouse)) | phosphorylation enrichment (c-Src) | phosphorylation enrichment (Hck) | phosphorylation enrichment (AncSZ) | phosphorylation enrichment (Fyn) | phosphorylation enrichment (FGFR3)
0.59 | 0.667 | 0.802 | NFPGGYSGSVK [MCPH1_Y606_L602F] | 0.529 | 0.486 | 0.547 | 0.379 | 0.357 | 0.539 | 0.365 | 0.368 | 0.451 | 0.406 | 0.354 | 0.44 | 0.47
0.347 | 0.526 | 0.579 | NGRTGDVLQPE [PLCG2_Y1036_Y1036D] | 0.777 | 0.404 | 1.05 | 0.468 | 0.598 | 0.903 | 0.454 | 0.464 | 0.428 | 0.496 | 0.971 | 0.39 | 0.669
0.947 | 0.845 | 1.1 | NLDCFYQQVTK [SEC16A_Y1041_R1039C] | 0.831 | 0.934 | 1.31 | 1.08 | 1.1 | 1.15 | 0.856 | 2.22 | 1.31 | 1.91 | 1.54 | 0.675 | 0.786
0.381 | 0.482 | 0.93 | NLTVNYKKNLT [SQOR_Y259_I264T] | 1.03 | 0.376 | 1.24 | 0.629 | 0.429 | 1.05 | 0.547 | 0.503 | 0.502 | 0.539 | 0.883 | 0.608 | 0.615
0.546 | 0.73 | 1.27 | NNIDYYKNTTN [FGFR2_Y657_K659N] | 0.446 | 0.552 | 0.745 | 0.473 | 0.359 | 0.596 | 0.32 | 0.648 | 0.387 | 0.512 | 0.756 | 0.417 | 0.605
0.45 | 0.747 | 0.861 | NPPGMHPVTGP [LPP_Y346_Y346H] | 0.997 | 0.361 | 0.516 | 0.332 | 0.299 | 0.474 | 0.35 | 0.286 | 0.358 | 0.28 | 0.534 | 0.353 | 0.331
0.874 | 1.15 | 1.22 | NPQKSYLIRLY [WAS_Y83_F84L] | 0.522 | 0.471 | 0.989 | 0.49 | 0.603 | 0.74 | 0.388 | 0.395 | 0.374 | 0.47 | 0.827 | 0.408 | 0.65
0.82 | 0.602 | 0.675 | NPSYNYEIVNR [DYNC1H1_Y3379] | 0.562 | 0.552 | 0.776 | 6.48 | 13 | 0.656 | 0.725 | 1.26 | 0.519 | 0.737 | 0.898 | 0.479 | 0.572
0.572 | 0.66 | 0.781 | NTFEKYLEEEF [TF_Y669_G671E_YF] | 0.692 | 0.407 | 1.26 | 0.61 | 0.6 | 1.17 | 0.426 | 0.551 | 0.495 | 0.497 | 1.25 | 0.389 | 0.754
0.665 | 0.812 | 0.997 | NTVDFYDLFGG [PTPN11_Y63_G60V_YF] | 0.576 | 0.458 | 0.951 | 0.618 | 0.576 | 0.926 | 1.23 | 0.953 | 2.56 | 3.05 | 1.06 | 4.46 | 0.644
0.55 | 0.639 | 0.924 | NYGTNYRVGSS [CPO_Y278_K273N] | 0.372 | 0.357 | 0.503 | 0.681 | 0.493 | 0.441 | 0.368 | 0.719 | 0.425 | 0.465 | 0.458 | 0.463 | 0.389
0.976 | 1.15 | 1.48 | PCNLIYFGEHP [TRPV6_Y201] | 2.89 | 1.76 | 2.64 | 0.745 | 1.17 | 3.44 | 2.21 | 1.07 | 12.2 | 2.08 | 3.19 | 3.66 | 1.68
0.379 | 0.417 | 0.554 | PFNAEYGGGGG [AKR1B10_Y316] | 0.43 | 1.06 | 1.49 | 0.693 | 1.35 | 0.627 | 0.879 | 0.871 | 0.285 | 1.66 | 1.19 | 1.14 | 0.802
0.851 | 1 | 1.16 | PKSLFYLLLKP [TRPC6_Y775_L780P] | 1.31 | 0.708 | 2.1 | 0.569 | 0.759 | 1.73 | 0.963 | 0.568 | 0.684 | 0.513 | 1.64 | 0.439 | 1.12

Source: the supplement of paper PMC10065799, “High-throughput profiling of sequence recognition by tyrosine kinases and SH2 domains using bacterial peptide display” (eLife, 2023)
